# According to patent publication US20220160842A1, “METHOD OF TREATING INFECTIVE ENDOCARDITIS” (priority 2019, published 2022):
# “And” between values parts separate entries of the source, which are not always exact repeats. Equal values may be shown once. Read-outs that look alike come from different tables or passages of the source.
# B1: CF-301: anti-staphylococcal lysin encoded within a prophage of the Streptococcus suis genome, SEQ ID NO: 2 with or without initial methionine (protein, listed as Streptococcus suis)
# chain: MTTVNEALNNVRAQVGSGVSVGNGECYALASWYERMISPDATVGLGAGVGWVSGAIGDTISAKNIGSSYNWQANGWTVSTSGPFKAGQIVTLGATPGNPYGHVVIVEAVDGDRLTILEQNYGGKRYPVRNYYSAASYRQQVVHYITPPGTVAQSAPNLAGSRSYRETGTMTVTVDALNVRRAPNTSGEIVAVYKRGESFDYDTVIIDVNGYVWVSYIGGSGKRNYVATGATKDGKRFGNAWGTFK
# Legend:
# S. aureus (MSSA) = experiment: MIC by broth microdilution; assay type: cell-based, Staphylococcus aureus; settings: S. aureus (MSSA), N=73
# Method in brief: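 Reference CLSI broth microdilution served for daptomycin and vancomycin, whereas exebacase was tested in a nonstandard medium: cation-adjusted MHB plus 25% horse serum and 0.5 mM DTT, with 2.5% lysed red cells added when streptococci were tested.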
# S. warneri = experiment: MIC by broth microdilution; assay type: cell-based, Staphylococcus warneri; settings: S. warneri, N=23
# Experimental: (§1) Minimal inhibitory concentrations (MICs) of exebacase against staphylococci were determined by broth microdilution (BMD) using a nonstandard antimicrobial susceptibility testing (AST) medium comprised of cation-adjusted Mueller Hinton broth (caMHB) supplemented with horse serum (Sigma Aldrich) and dithiothreitol (DTT; Sigma Aldrich) to final concentrations of 25% and 0.5 mM, respectively. This medium, referred to as caMHB-HSD, is approved for use in exebacase AST by the Clinical and Laboratory Standards Institute (CLSI) (CLSI. 2017, Jan. 16-17. AST Subcommittee Working Group Meetings and Plenary. AST Meeting Files & Resources, clsi.org/education/microbiology/ast/ast-meeting-files-resources/. Additional supplementation with 2.5% lysed red blood cells (Remel™, ThermoFisher) was included for analyses of streptococcal isolates, as recommended by CLSI. See CLSI, 2015. Methods for Dilution Antimicrobial Susceptibility Tests for Bacteria That Grow Aerobically, 10th Edition. Clinical and Laboratory Standards Institute, Wayne, Pa.
# (§2) Daptomycin (Sigma Aldrich) and vancomycin hydrochloride (Sigma Aldrich) were tested following the reference BMD method for each. See CLSI. 2015. Methods for Dilution Antimicrobial Susceptibility Tests for Bacteria That Grow Aerobically, 10th Edition. Clinical and Laboratory Standards Institute, Wayne, Pa.
# all staphylococci tested = experiment: MIC by broth microdilution; assay type: cell-based
# Experimental: as §2
# S. mutans = experiment: MIC by broth microdilution; assay type: cell-based, Streptococcus mutans; settings: S. mutans (viridans), N=22
# Experimental: as §1, §2
# S. sanguinis = experiment: MIC by broth microdilution; assay type: cell-based, Streptococcus sanguinis; settings: S. sanguinis (viridans), N=15
# Experimental: as §1, §2
# S. pyogenes = experiment: MIC by broth microdilution; assay type: cell-based, Streptococcus pyogenes; settings: S. pyogenes (group A), N=100
# Experimental: as §1, §2
# S. agalactiae = experiment: MIC by broth microdilution; assay type: cell-based, Streptococcus agalactiae; settings: S. agalactiae (group B), N=97
# Experimental: as §1, §2
# S. pneumoniae = experiment: MIC by broth microdilution; assay type: cell-based, Streptococcus pneumoniae; settings: S. pneumoniae, N=59
# Experimental: as §1, §2
# S. epidermidis = experiment: MIC by broth microdilution; assay type: cell-based, Staphylococcus epidermidis; settings: N=52
# Experimental: as §1, §2
# Staphylococcus hominis = experiment: MIC by broth microdilution; assay type: cell-based; settings: n=2 strains, listed as exebacase
# Experimental: as §1
# S. pseudintermedius = experiment: MIC by broth microdilution; assay type: cell-based, Staphylococcus pseudintermedius; settings: each of n=6 isolates
# Experimental: as §1
# S. sciuri = experiment: MIC by broth microdilution; assay type: cell-based, Staphylococcus sciuri; settings: n=3 isolates
# Experimental: as §1
# S. simulans = experiment: MIC by broth microdilution; assay type: cell-based, Staphylococcus simulans; settings: n=1 isolate
# Experimental: as §1
# S. hyicus = experiment: MIC by broth microdilution; assay type: cell-based, Staphylococcus hyicus; settings: n=1 isolate
# Experimental: as §1
# S. intermedius = experiment: MIC by broth microdilution; assay type: cell-based, Streptococcus intermedius; settings: S. intermedius (viridans), N=10
# Experimental: as §1, §2
# [1] = system: S. aureus bacteremia/endocarditis; experiment: Phase II clinical study, CF-301 plus standard of care antibiotics; assay type: in vivo, human
# Experimental: These 116 patients constituted the microbiological intent to treat (mITT) population of a Phase II clinical study and was the primary efficacy analysis population. The primary efficacy endpoint was the clinical responder rate (CRR) at Day 14. Diagnosis and clinical outcomes were determined by a blinded Adjudication Committee.
# [2] = healthy subjects, estimated previously; cited from earlier work
molecule,measurement,setting,value
"CCCCCCCCCC(=O)N[C@@H](Cc1c[nH]c2ccccc12)C(=O)N[C@H](CC(N)=O)C(=O)N[C@@H](CC(=O)O)C(=O)N[C@@H]1C(=O)NCC(=O)N[C@@H](CCCN)C(=O)N[C@@H](CC(=O)O)C(=O)N[C@H](C)C(=O)N[C@@H](CC(=O)O)C(=O)NCC(=O)N[C@H](CO)C(=O)N[C@@H]([C@H](C)CC(=O)O)C(=O)N[C@@H](CC(=O)c2ccccc2N)C(=O)O[C@@H]1C [DAP, Daptomycin]",MIC Range,S. aureus (MSSA),0.125 to 0.5 µg/mL
same,MIC50,"S. aureus (MSSA); Staphylococcus aureus, read-out: MIC50",0.25 µg/mL
same,MIC90,"S. aureus (MSSA); Staphylococcus aureus, read-out: MIC90",0.25 µg/mL
same,MIC Range,S. warneri,0.25 to 2 µg/mL
same,MIC50,"S. warneri; Staphylococcus warneri, read-out: MIC50",0.5 µg/mL
same,MIC90,"S. warneri; Staphylococcus warneri, read-out: MIC90",2 µg/mL
same,MIC Range,all staphylococci tested,0.125 to 2 µg/mL
same,MIC Range,S. mutans,0.25 to 8 µg/mL
same,MIC50,"S. mutans; Streptococcus mutans, read-out: MIC50",0.5 µg/mL
same,MIC90,"S. mutans; Streptococcus mutans, read-out: MIC90",1 µg/mL
same,MIC Range,S. sanguinis,0.06 to 1 µg/mL
same,MIC50,"S. sanguinis; Streptococcus sanguinis, read-out: MIC50",0.25 µg/mL
same,MIC90,"S. sanguinis; Streptococcus sanguinis, read-out: MIC90",1 µg/mL
same,MIC Range,S. pyogenes,0.016 to 0.06 µg/mL
same,MIC50,"S. pyogenes; Streptococcus pyogenes, read-out: MIC50",0.03 µg/mL
same,MIC90,"S. pyogenes; Streptococcus pyogenes, read-out: MIC90",0.06 µg/mL
same,MIC Range,S. agalactiae,0.125 to 0.25 µg/mL
same,MIC50,"S. agalactiae; Streptococcus agalactiae, read-out: MIC50",0.125 µg/mL
same,MIC90,"S. agalactiae; Streptococcus agalactiae, read-out: MIC90",0.25 µg/mL
same,MIC Range,S. pneumoniae,0.06 to 0.25 µg/mL
same,MIC50,"S. pneumoniae; Streptococcus pneumoniae, read-out: MIC50",0.125 µg/mL
same,MIC90,"S. pneumoniae; Streptococcus pneumoniae, read-out: MIC90",0.5 µg/mL
B1,MIC50,S. aureus (MSSA),0.5 µg/mL
same,MIC90,S. aureus (MSSA),0.5 µg/mL
same,MIC Range,S. aureus (MSSA),0.25 to 1 µg/mL
same,MIC50,S. epidermidis,0.5 µg/mL
same,MIC90,S. epidermidis,0.5 µg/mL
same,MIC Range,S. epidermidis,0.125 to 2 µg/mL
same,MIC50,S. warneri,0.5 µg/mL
same,MIC90,S. warneri,1 µg/mL
same,MIC Range,S. warneri,0.06 to 1 µg/mL
same,MIC,Staphylococcus hominis,0.125 µg/mL and 0.25 µg/mL
same,MIC,S. pseudintermedius,0.25 µg/mL
same,MIC,S. sciuri,2 µg/mL
same,MIC,S. simulans,0.125 µg/mL
same,MIC,S. hyicus,0.25 µg/mL
same,MIC50,S. mutans,32 µg/mL
same,MIC90,S. mutans,64 µg/mL
same,MIC50,S. sanguinis,4 µg/mL
same,MIC90,S. sanguinis,16 µg/mL
same,MIC Range,S. sanguinis,2 to 32 µg/mL
same,MIC50,S. intermedius,0.25 µg/mL
same,MIC90,S. intermedius,0.25 µg/mL
same,MIC Range,S. intermedius,0.06 to 0.5 µg/mL
same,MIC50,S. pyogenes,1 µg/mL
same,MIC90,S. pyogenes,2 µg/mL
same,MIC Range,S. pyogenes,0.5 to 4 µg/mL
same,MIC50,S. agalactiae,1 µg/mL
same,MIC90,S. agalactiae,2 µg/mL
same,MIC Range,S. agalactiae,0.25 to 4 µg/mL
same,MIC50,S. pneumoniae,4 µg/mL
same,MIC90,S. pneumoniae,32 µg/mL
same,MIC Range,S. pneumoniae,1 to 64 µg/mL
same,hypersensitivity,[1]; CF-301 treatment group,no reports of hypersensitivity
same,incidence of treatment emergent adverse events (TEAEs),[1]; CF-301 treatment group,88.9%
same,serious TEAEs,[1]; CF-301 treatment group,47.2%
same,CRR higher than in patients treated with standard of care antibiotics alone,[1]; MRSA-infected patients,about 40%
same,CRR,"[1]; MRSA-infected patients, CF-301 and standard of care antibiotics",74.10%
same,tolerability,[1]; addition of CF-301 to a standard of care antibiotic regimen,well-tolerated
same,died,[1]; from study drug administration through 28 days after the end of SOC antibiotic treatment,19.4%
same,clinical responder rate (CRR) at Day 14,"[1]; mITT population, single two hour infusion of CF-301 plus SOC antibiotics",70.4%
same,CRR,[1]; patients with bacteremia alone,81.8%
same,CRR,[1]; subset with bacteremia/right-sided endocarditis,80%
same,effect of age on AUC0-24 or Cmax,covariate on peripheral clearance,less than 4%
same,CL lower than in healthy subjects,patients vs healthy subjects,40%
same,Vd lower than in healthy subjects,patients vs healthy subjects,17%
same,fold higher AUC0-24 or Cmax than patients with normal renal function,"patients with moderate and severe renal impairment, expected from PPK model",1.3 to 2 fold
same,Total volume distribution,"patients, PPK model",20.2 L
same,central compartment (Vc),"patients, PPK model, RSE 8.2%",4.5 L
same,Clearance,"patients, three-compartment PPK model, RSE 5.5%",4.2 Liters (L)/hour (hr)
same,CL,[2],7.1 L/h
same,volume distribution (Vd),[2],27.7 L
